Test results as given in article PMC3752404 (Molecular cell, 2011).
Residue numbers refer to the chain shown, from its start. Numbers in names are those of the source. Where “and” joins values, the source holds several entries; their conditions need not be identical. Equal entries are not always repeated. Values belong to the molecule of their own block, whether it stands above or below them.

Columns and labels:
[1] = molecular target: Swi6 (wild type, tagged: N-terminal 6xHis and C-terminal FLAG) (S. pombe) (UniProt P40381); experiment: equilibrium competition with a fluorescently labeled DNA
[2] = molecular target: H3Kc9me3 12N(L15) nucleosome array; experiment: native gel or EMSA
[3] = molecular target: MLA methylated (H3Kc9me3) mononucleosome on the 147 bp 601 sequence; experiment: AUC
[4] = molecular target: Swi6 chromoshadow domain (WT CSD) (S. pombe)
[5] = molecular target: Swi6 chromoshadow domain (WT CSD) (S. pombe); experiment: ITC
[6] = molecular target: H3Kc9me3 2N(L15) dinucleosome; experiment: native gel or EMSA
[7] = molecular target: H3K9 2N(L47) dinucleosome; experiment: native gel or EMSA
[8] = molecular target: H3K9 2N(L15) dinucleosome; experiment: native gel or EMSA
[9] = molecular target: H3Kc9me3 2N(L47) dinucleosome; experiment: native gel or EMSA
[10] = molecular target: MLA methylated (H3Kc9me3) mononucleosome on the 147 bp 601 sequence; experiment: native gel or EMSA
[11] = molecular target: H3Kc9me3 12N(L47) nucleosome array; experiment: native gel or EMSA
SEC-MALS = molecular target: the molecule itself; experiment: SEC-MALS
H3K9me3 tail peptide = experiment: fluorescence polarisation
SEC-MALS + cross-linking = molecular target: the molecule itself; experiment: SEC-MALS + cross-linking
cross-linking = molecular target: the molecule itself; experiment: cross-linking
SEC = molecular target: the molecule itself; experiment: SEC

fold increase of affinity on removing the tags (nucleosomes and arrays): 2.5 fold
Molecule: Swi6 (wild type, untagged) (from UniProt P40381 1-328) (natural protein)

fold specificity over H3K9 nucleosomes [1]: 5 fold
Molecule: MLA methylated (H3Kc9me3) mononucleosome on the 147 bp 601 sequence (complex)

fold discrimination between methylated and unmethylated arrays [2]: 2 to 3 fold | stoichiometry N [3]: 2
Molecule: Swi6 L315D (from UniProt P40381 1-328) (natural protein)

fold increase of specificity compared to WT Swi6 [2]: 7 fold | fold specificity over the H3K9 12N(L15) array [2]: 130 fold
Molecule: Swi6 V82E-Y131W (from UniProt P40381 1-328) (natural protein)

fold specificity over the H3K9 12N(L15) array (ratio of K1/2) [2]: 25 fold | K1/2 [6]: 62 nM | K1/2 [7]: 32 nM | K1/2 [8]: 156 nM | K1/2 [9]: 12 nM | fold preference over H3K9 nucleosomes (ratio of K1/2) [10]: 5 fold | fold specificity over the H3K9 12N(L47) array (ratio of K1/2) [11]: 5.4 fold | stoichiometry N [3]: 4
Molecule: Swi6 (wild type, tagged: N-terminal 6xHis and C-terminal FLAG) (from UniProt P40381 1-328) (natural protein)

fold increase of binding (H3K9me3 tail peptide): 3 fold
B1: Swi6 V82E (natural protein, S. pombe, UniProt P40381 1-328, looked up)
chain: MKKGGVRSYRRSSTSKRSVIDDDSEPELPSMTKEAIASHKADSGSSDNEVESDHESKSSSKKLKENAKEEEGGEEEEEDEYEVEKVLKHRMARKGGGYEYLLKWEGYDDPSDNTWSSEADCSGCKQLIEAYWNEHGGRPEPSKRKRTARPKKPEAKEPSPKSRKTDEDKHDKDSNEKIEDVNEKTIKFADKSQEEFNENGPPSGQPNGHIESDNESKSPSQKESNESEDIQIAETPSNVTPKKKPSPEVPKLPDNRELTVKQVENYDSWEDLVSSIDTIERKDDGTLEIYLTWKNGAISHHPSTITNKKCPQKMLQFYESHLTFRENE
binding result (SEC-MALS): binds

The remaining lines, values behind:

Molecule: Swi6 chromoshadow domain (WT CSD) (domain or fragment)
stoichiometry N [4]: 2 | Kd [5]: < 17 nM

B2: Swi6 Y131W (natural protein, S. pombe, UniProt P40381 1-328, looked up)
chain: B1 chain with E82V, Y131W
fold tetramer formation over WT (SEC-MALS): ~1.6 fold

B3: Swi6 (wild type, tagged: N-terminal 6xHis and C-terminal FLAG) (natural protein, S. pombe, UniProt P40381 1-328, looked up)
chain: B1 chain with E82V
stoichiometry N (SEC-MALS + cross-linking): 8 | stoichiometry N (cross-linking): 2 and > 2

B4: Swi6 V82E-Y131W (natural protein, S. pombe, UniProt P40381 1-328, looked up)
chain: B1 chain with Y131W
fold tetramer formation over WT (SEC-MALS): ~3.5 fold | stoichiometry N (SEC-MALS): 4 and 8

B5: Swi6 chromodomain (CD, aa 81-137) (domain or fragment, S. pombe, UniProt P40381 81-137, looked up)
chain: YVVEKVLKHRMARKGGGYEYLLKWEGYDDPSDNTWSSEADCSGCKQLIEAYWNEHGG
stoichiometry N (SEC): 2
